Data on two molecules can be found in patent US20180118786A1 (ECOLE POLYTECHNIQUE FEDERALE DE LAUSANNE EPFL, published 2018).

Starred links: 1 amine or outer side, 2 acyl side, 3 side chain; linkers in the order of their positions; H or OH if unused. Positions of bridges follow the written chain, without caps; N, C: chain ends. TATA = O=C(CC[*:1])N1CN(C(=O)CC[*:2])CN(C(=O)CC[*:3])C1

The target of experiment [1] is trypsin (human, UniProt P07477 24-247). The experiment in a line: protease inhibition assay.
Experiment [2] deals with plasmin (human, UniProt P00747 97-810, limits assumed). In words: protease inhibition assay.
Experiment [3] addresses T1, factor XIa (human, UniProt P03951 19-625).
T1 construct: also called FXIa
The experiment in a line: protease inhibition assay.

In experiment [4] the target is T2, plasma kallikrein (human, UniProt P03952 20-638).
T2 construct: also called PK
In words: protease inhibition assay, specificity testing.

In experiment [5] the target is T3, mouse FXIIa (mouse, UniProt Q80YC5 20-597, limits assumed).
T3 construct: also called mouse α-FXIIa (MFXIIA; Molecular Innovations)
T3 sequence (looked up): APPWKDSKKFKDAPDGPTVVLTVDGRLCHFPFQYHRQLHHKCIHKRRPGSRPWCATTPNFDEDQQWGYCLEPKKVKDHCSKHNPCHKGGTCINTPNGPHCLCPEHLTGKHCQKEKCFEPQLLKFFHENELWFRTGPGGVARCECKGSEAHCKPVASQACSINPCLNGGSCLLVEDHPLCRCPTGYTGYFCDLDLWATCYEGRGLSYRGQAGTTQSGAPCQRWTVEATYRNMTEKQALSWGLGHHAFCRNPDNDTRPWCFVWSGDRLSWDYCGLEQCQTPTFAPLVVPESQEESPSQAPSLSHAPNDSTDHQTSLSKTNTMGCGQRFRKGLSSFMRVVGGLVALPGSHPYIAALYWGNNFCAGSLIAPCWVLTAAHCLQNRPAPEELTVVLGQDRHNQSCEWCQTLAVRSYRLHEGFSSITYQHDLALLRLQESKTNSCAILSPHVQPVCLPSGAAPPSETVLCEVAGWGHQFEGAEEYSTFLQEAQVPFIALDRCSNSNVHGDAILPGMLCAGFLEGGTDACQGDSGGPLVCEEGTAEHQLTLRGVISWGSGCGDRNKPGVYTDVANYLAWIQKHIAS
In words: protease inhibition assay, fluorogenic substrate.

T2 sequence (P03952 20-638 limits assumed): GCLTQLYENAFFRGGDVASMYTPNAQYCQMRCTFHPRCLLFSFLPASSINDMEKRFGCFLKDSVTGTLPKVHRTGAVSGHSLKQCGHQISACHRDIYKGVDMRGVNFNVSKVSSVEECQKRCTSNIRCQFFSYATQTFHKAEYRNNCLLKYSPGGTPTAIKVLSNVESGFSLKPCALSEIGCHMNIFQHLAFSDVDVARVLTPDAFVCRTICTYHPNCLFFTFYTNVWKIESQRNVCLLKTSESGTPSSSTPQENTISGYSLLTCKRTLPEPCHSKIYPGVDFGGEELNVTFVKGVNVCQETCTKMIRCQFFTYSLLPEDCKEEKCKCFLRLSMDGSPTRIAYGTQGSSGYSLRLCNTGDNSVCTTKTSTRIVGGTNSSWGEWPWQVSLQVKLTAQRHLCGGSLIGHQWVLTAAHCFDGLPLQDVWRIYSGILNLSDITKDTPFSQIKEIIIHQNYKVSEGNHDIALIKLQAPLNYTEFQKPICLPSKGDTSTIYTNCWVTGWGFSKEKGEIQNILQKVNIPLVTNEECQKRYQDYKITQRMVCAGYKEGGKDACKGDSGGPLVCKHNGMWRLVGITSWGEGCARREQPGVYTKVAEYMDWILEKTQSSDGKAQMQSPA
Sequence of plasmin (P00747 97-810 limits assumed): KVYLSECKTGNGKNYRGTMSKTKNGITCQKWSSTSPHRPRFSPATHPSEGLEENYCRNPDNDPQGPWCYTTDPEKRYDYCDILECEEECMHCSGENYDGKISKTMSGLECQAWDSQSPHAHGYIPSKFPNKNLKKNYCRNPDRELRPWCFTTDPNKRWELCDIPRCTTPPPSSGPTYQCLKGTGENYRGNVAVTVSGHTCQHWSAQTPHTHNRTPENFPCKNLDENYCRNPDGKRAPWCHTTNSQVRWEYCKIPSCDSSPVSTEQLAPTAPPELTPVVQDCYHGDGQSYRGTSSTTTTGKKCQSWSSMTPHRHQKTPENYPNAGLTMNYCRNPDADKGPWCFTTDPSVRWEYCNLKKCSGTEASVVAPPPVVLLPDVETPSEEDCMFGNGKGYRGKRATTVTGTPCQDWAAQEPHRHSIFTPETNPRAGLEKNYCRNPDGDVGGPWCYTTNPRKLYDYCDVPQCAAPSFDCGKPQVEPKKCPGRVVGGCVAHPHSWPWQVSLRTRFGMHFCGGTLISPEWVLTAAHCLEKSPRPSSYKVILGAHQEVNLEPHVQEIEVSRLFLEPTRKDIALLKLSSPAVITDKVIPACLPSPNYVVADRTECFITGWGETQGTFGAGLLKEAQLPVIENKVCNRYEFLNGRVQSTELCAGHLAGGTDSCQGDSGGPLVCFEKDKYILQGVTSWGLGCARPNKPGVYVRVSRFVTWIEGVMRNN

B1: corn trypsin inhibitor (other, UniProt P01088 29-155, looked up)
chain: SAGTSCVPGWAIPHNPLPSCRWYVTSRTCGIGPRLPWPELKRRCCRELADIPAYCRCTALSILMDGAIPPGPDAQLEGRLEDLPGCPREVQRGFAATLVTEAECNLATISGVAECPWILGGGTMPSK
notes: also called CTI
One may read the Ki as the dissociation constant of the complex between target and ligand, obtained from inhibition or displacement. A higher Ki goes with weaker binding. Regarding B1, the Ki in experiment [1] amounted to 0.007 µM; in experiment [2] it was 5 µM; in experiment [3] it was 12.5 µM.

B2: FXII618 (peptide)
peptide: H-RCFRLPCRQLRCR-NH2
modifications: linker 2-7-12 via TATA
notes: Bicyclic; free N-terminus; also called peptide 1; bicyclic peptide 1
Consider B2, for which the Ki in experiment [1] was 5 µM; in experiment [5], 0.252 µM. The binding result in experiment [4] is “binds”.
